Results: PMC5626764 (Nature Communications, 2017)

B1: ephrinB2-229 (S-tagged monomeric ephrinB2 ectodomain, residues 25-229) (domain or fragment, human, UniProt P52799 25-229, looked up)
chain: SKSIVLEPIYWNSSNSKFLPGQGLVLYPQIGDKLDIICPKVDSKTVGQYEYYKVYMVDKDQADRCTIKKENTPLLNCAKPDQDIKFTIKFQEFSPNLWGLEFQKNKDYYIISTSNGSLEGLDNQEGGVCQTRAMKILMKVGQDASSAGSTRNKDPTRRPELEAGTNGRSSTTSPFVKPNPGSSTDGNSAGHSGNNILGSEVALFA
B2: Wildtype NiV G ectodomain (Nipah virus attachment glycoprotein G, residues 71-602, N-terminal His6-tag) (domain or fragment)
chain: QNYTRSTDNQAVIKDALQGIQQQIKGLADKIGTEIGPKVSLIDTSSTITIPANIGLLGSKISQSTASINENVNEKCKFTLPPLKIHECNISCPNPLPFREYRPQTEGVSNLVGLPNNICLQKTSNQILKPKLISYTLPVVGQSGTCITDPLLAMDEGYFAYSHLERIGSCSRGVSKQRIIGVGEVLDRGDEVPSLFMTNVWTPPNPNTVYHCSAVYNNEFYYVLCAVSTVGDPILNSTYWSGSLMMTRLAVKPKSNGGGYNQHQLALRSIEKGRYDKVMPYGPSGIKQGDTLYFPAVGFLVRTEFKYNDSNCPITKCQYSKPENCRLSMGIRPNSHYILRSGLLKYNLSDGENPKVVFIEISDQRLSIGSPSKIYDSLGQPVFYQASFSWDTMIKFGDVLTVNPLVVNWRNNTVISRPGQSQCPRFNTCPEICWEGVYNDAFLIDRINWISAGVFLDSNQTAENPVFTVFKDNEILYRAQLASEDTNAQKTITNCFLLKNKIWCISLVEIYDTGDNVIRPKLFAVKIPEQCT
B3: ephrinB2-Fc (human ephrinB2 residues 1-229, Factor XA cleavage site, human IgG1 residues 100-330) (Fc fusion)
chain: IVLEPIYWNSSNSKFLPGQGLVLYPQIGDKLDIICPKVDSKTVGQYEYYKVYMVDKDQADRCTIKKENTPLLNCAKPDQDIKFTIKFQEFSPNLWGLEFQKNKDYYIISTSNGSLEGLDNQEGGVCQTRAMKILMKVGQDASSAGSTRNKDPTRRPELEAGTNGRSSTTSPFVKPNPGSSTDGNSAGHSGNNILGSEVALFA
notes: also called dimeric ephrinB2; dimeric receptor
B4: Stag-ephrinB2-167 (S-tagged monomeric ephrinB2 globular domain, residues 25-167) (domain or fragment, human, UniProt P52799 25-167, looked up)
chain: SKSIVLEPIYWNSSNSKFLPGQGLVLYPQIGDKLDIICPKVDSKTVGQYEYYKVYMVDKDQADRCTIKKENTPLLNCAKPDQDIKFTIKFQEFSPNLWGLEFQKNKDYYIISTSNGSLEGLDNQEGGVCQTRAMKILMKVGQD
B5: ephrinB2-167 from His6-ephrinB2-167 with the His6-tag removed by enterokinase cleavage (domain or fragment, human, UniProt P52799 25-167, looked up)
chain: SKSIVLEPIYWNSSNSKFLPGQGLVLYPQIGDKLDIICPKVDSKTVGQYEYYKVYMVDKDQADRCTIKKENTPLLNCAKPDQDIKFTIKFQEFSPNLWGLEFQKNKDYYIISTSNGSLEGLDNQEGGVCQTRAMKILMKVGQD
notes: also called monomeric ephrinB2

Key:
[1] = molecular target: B2; test: ELISA; settings: both partners purified
[2] = molecular target: the molecule itself; test: negative stain electron microscopy
[3] = molecular target: T1, SHG-labeled wildtype NiV G ectodomain (Nipah virus, UniProt Q9IH62 71-602); test: second harmonic generation (SHG); settings: both partners purified
T1 sequence: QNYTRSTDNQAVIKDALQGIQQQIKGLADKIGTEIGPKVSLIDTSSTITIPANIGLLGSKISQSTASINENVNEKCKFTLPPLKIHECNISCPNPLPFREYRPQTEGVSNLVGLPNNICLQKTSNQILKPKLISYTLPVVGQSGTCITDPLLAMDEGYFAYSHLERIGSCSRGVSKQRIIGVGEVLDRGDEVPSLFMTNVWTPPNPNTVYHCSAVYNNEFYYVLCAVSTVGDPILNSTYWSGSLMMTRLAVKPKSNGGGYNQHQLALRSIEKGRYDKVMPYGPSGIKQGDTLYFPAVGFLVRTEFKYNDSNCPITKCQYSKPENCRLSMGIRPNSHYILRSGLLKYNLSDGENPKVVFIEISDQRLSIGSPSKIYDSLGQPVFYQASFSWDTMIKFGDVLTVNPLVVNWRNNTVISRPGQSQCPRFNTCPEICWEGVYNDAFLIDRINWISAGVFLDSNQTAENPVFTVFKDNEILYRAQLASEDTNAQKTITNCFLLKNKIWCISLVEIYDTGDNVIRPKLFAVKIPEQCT

Binder | Kd [1] [nM] | stoichiometry N [2] | ΔSHG [3] [%]
B1 | 33.2 | – | –
B2 | – | 4 | –
B3 | 0.088 | – | -12.9
B4 | 11.9 | – | –
B5 | – | – | -27.9
